Measurements published in article PMC7038996.
Read-outs that look alike come from different tables or passages of the source.

Experiments:
GST-APE1 WT [1] = molecular target: T1, GST-APE1 WT (Xenopus laevis, UniProt Q6IP62 1-316); assay: EMSA
T1 sequence: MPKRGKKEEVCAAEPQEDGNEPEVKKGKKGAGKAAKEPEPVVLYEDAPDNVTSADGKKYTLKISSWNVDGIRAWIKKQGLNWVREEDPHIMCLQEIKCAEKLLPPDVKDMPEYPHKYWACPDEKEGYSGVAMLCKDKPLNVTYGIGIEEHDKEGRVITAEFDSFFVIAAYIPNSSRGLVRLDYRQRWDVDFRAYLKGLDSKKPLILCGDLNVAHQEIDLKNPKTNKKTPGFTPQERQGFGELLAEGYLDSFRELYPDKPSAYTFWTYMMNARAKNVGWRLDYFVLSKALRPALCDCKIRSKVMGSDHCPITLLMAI

GST-APE1 CA = molecular target: T2, GST-APE1 CA (Xenopus laevis, UniProt Q6IP62 1-316, C92A;C98A); assay: EMSA
T2 sequence: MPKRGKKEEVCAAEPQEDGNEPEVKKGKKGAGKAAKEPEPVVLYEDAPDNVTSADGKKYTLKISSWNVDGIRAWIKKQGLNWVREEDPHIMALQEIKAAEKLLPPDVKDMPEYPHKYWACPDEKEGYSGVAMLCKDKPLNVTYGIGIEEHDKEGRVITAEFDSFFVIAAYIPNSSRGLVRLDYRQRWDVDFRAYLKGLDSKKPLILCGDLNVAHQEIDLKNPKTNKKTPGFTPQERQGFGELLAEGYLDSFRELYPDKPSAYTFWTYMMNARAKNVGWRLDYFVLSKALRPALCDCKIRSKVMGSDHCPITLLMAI

GST-APE1 F264Y = molecular target: T3, GST-APE1 F264Y (Xenopus laevis, UniProt Q6IP62 1-316, F264Y); assay: EMSA
T3 sequence: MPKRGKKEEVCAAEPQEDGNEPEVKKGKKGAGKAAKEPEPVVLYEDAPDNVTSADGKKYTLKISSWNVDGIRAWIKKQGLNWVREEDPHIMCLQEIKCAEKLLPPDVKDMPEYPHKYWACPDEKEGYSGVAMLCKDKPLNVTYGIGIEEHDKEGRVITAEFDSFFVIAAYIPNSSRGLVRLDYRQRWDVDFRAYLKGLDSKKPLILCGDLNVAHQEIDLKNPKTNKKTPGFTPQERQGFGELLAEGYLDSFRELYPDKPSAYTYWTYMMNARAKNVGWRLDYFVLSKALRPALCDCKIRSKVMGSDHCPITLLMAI

GST-APE1 F264L = molecular target: T4, GST-APE1 F264L (Xenopus laevis, UniProt Q6IP62 1-316, F264L); assay: EMSA
T4 sequence: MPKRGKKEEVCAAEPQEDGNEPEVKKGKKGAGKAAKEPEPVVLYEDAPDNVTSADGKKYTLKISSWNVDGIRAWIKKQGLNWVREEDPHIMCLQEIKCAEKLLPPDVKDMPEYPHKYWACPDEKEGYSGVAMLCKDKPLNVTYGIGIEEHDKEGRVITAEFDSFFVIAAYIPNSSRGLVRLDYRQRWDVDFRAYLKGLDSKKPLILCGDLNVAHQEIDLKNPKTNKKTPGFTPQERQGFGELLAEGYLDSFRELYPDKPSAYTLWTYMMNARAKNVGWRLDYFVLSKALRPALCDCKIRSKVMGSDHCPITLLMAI

GST-APE1 DA = molecular target: T5, GST-APE1 DA (Xenopus laevis, UniProt Q6IP62 1-316, D306A); assay: EMSA
T5 sequence: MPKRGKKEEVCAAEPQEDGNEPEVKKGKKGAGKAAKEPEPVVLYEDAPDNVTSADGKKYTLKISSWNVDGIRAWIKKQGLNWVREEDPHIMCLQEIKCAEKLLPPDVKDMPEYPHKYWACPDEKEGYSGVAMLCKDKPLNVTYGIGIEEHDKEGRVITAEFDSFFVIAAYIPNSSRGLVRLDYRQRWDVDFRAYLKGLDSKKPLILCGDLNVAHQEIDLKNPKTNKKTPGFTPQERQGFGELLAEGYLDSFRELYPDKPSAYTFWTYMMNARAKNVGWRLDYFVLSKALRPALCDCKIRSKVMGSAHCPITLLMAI

Myc-APE2 = molecular target: T6, Myc-APE2 (UniProt Q6DDT4 1-517); assay: pull-down
T6 sequence: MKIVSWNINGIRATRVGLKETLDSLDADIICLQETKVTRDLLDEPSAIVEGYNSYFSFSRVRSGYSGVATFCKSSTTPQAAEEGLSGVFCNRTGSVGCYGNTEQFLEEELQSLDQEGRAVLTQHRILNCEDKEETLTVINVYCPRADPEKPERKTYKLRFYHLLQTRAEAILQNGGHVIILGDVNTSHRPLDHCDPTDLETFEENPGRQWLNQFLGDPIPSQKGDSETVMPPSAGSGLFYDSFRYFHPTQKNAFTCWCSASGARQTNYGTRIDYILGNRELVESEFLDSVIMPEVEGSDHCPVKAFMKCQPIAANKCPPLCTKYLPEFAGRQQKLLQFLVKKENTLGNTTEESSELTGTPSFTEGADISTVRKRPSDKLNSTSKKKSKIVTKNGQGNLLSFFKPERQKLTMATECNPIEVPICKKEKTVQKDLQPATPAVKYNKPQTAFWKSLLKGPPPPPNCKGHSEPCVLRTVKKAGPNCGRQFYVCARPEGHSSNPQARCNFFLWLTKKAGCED

GST-APE1 WT [2] = molecular target: T1, GST-APE1 WT; assay: EMSA; remark: listed apart in the source

B1: dsDNA-SSB (dsDNA)
DNA 1: TCGGTACCCGGGGATCCTCTAGAGTCGACC
DNA 2: TGCAGGCATGCAAGCTTGGCGTAATCATGGTCATAGCTGT
DNA 3: ACAGCTATGACCATGATTACGCCAAGCTTGCATGCCTGCAGGTCGACTCTAGAGGATCCCCGGGTACCGA
modifications: nick between nt 30 and 31 of S1 (Nt.BstNBI, …^); CIP-treated
GST-APE1 WT [1]
  binding result: binds
GST-APE1 CA
  binding result: no binding
GST-APE1 F264Y
  binding result: no binding
GST-APE1 F264L
  binding result: no binding
GST-APE1 DA
  binding result: no binding

B2: biotin-dsDNA (dsDNA)
DNA 1: TCGGTACCCGGGGATCCTCTAGAGTCGACCTGCAGGCATGCAAGCTTGGCGTAATCATGGTCATAGCTGT
DNA 2: ACAGCTATGACCATGATTACGCCAAGCTTGCATGCCTGCAGGTCGACTCTAGAGGATCCCCGGGTACCGA
Myc-APE2
  binding result: no binding

B3: dsDNA (70 bp) (dsDNA)
DNA 1: TCGGTACCCGGGGATCCTCTAGAGTCGACCTGCAGGCATGCAAGCTTGGCGTAATCATGGTCATAGCTGT
DNA 2: ACAGCTATGACCATGATTACGCCAAGCTTGCATGCCTGCAGGTCGACTCTAGAGGATCCCCGGGTACCGA
GST-APE1 WT [2]
  binding result: no binding

B4: biotin-dsDNA-SSB (dsDNA)
DNA 1: TCGGTACCCGGGGATCCTCTAGAGTCGACC
DNA 2: TGCAGGCATGCAAGCTTGGCGTAATCATGGTCATAGCTGT
DNA 3: ACAGCTATGACCATGATTACGCCAAGCTTGCATGCCTGCAGGTCGACTCTAGAGGATCCCCGGGTACCGA
modifications: nick by Nt.BstNBI; CIP-treated
Myc-APE2
  binding result: binds
